Laboratory results published in patent US20110268668A1, “PROCESS FOR NEBULIZING AQUEOUS COMPOSITIONS CONTAINING HIGHLY CONCENTRATED INSULIN” (priority 1997, published 2011).
“And” between values parts separate entries of the source, which are not always exact repeats. Equal entries are not always repeated.

Columns and labels:
[1] = Viscosity of aerosol preparation (Ostwald viscosimeter); assay type: physicochemical; conditions: aerosol preparation with about 35 mg/mL of insulin, pH 7.4
Description: Higher viscosity solutions of macromolecules with a viscosity of up to 1100×10^−6 Pa·s are preferred. With such solutions, an inhalable proportion of droplets containing an active substance of about 60% is obtained. The limiting viscosity numbers given were detected using an Ostwald viscosimeter using the method known from the literature. For comparison, the viscosity of water is 894×10^−6 Pa·s (measured at 25° C.).
The aerosol preparation thus produced has a concentration of about 35 mg/mL of insulin, the viscosity of the solution being about 1020×10^−6 Pa·s.

[2] = test system: blood glucose level; test: In vivo test in dog: blood glucose after inhaled highly concentrated insulin solution from RESPIMAT; conditions: anesthetized dog; six puffs of highly concentrated insulin solution from RESPIMAT; FIG. 5
Description: The insulin was administered to the dog anesthetized with pentobarbital after previously receiving basic sedation. The animal was intubated and ventilated as before. A total of six puffs of insulin solution were delivered from the RESPIMAT® device. Each puff was administered at the start of an inward breath. Between the breathing in phase and the breathing out phase there was a gap of 5 seconds. Before the next administration of insulin, two breath cycles were left with no intervention. Blood was taken one hour before administration, at the same time as administration and at various times thereafter over […]. The blood glucose level was measured in the fresh blood using the method of Trasch, Koller, and Tritscher (Klein. Chem. 30; 969 [1984]) using a REFLETRON® device made by Boehringer Mannheim.

[3] = test system: encephalo-myocarditis virus infected A549 cells; test: In vitro RESPIMAT nebulization, trap recovery of interferon omega by biological assay (inhibiting destruction of virus-infected cells); assay type: cell-based; conditions: same solutions
From the text: (§1) The effectiveness of a nebulizer can be tested using an in vitro system in which a protein solution is nebulized and the spray mist is caught in a so-called “trap” (see FIG. 1). The activity of the protein in the aerosol reservoir (a) is compared with its activity in the trapped liquid (b), e.g., by means of an immunoassay or using an assay for the biological effectiveness of the protein. This experiment makes it possible to evaluate the degree of destruction of the protein by the nebulizing process. A second parameter of the aerosol quality is the so-called inhalable proportion, which is defined here as the proportion of the mist droplets with a […] median aerodynamic diameter (MMAD) of less than 5.8 μm. The inhalable proportion can be measured using an “Andersen Impactor”. For good protein absorption it is important not only to achieve nebulization without any substantial loss of activity but also to generate an aerosol with a good inhalable proportion (about 60%). […] The effectiveness of a nebulization device can also be tested in an in vivo system; in this case factors such as susceptibility to lung proteases come into play. […] Blood samples arc taken at suitable time intervals and the protein level in the plasma is then measured by immunological or biological methods.
(§2) The device was activated and a volume of about 12.9 μL, (one puff) was nebulized in an air current of 28 l/min. […] Interferon omega was measured in the reservoir solution and in the solution caught in the trap by immunological methods, using an ELISA, and biologically, by inhibiting the destruction of encephalo-myocarditis virus infected A549 cells. […] However, additional biological measurements are very important as they are a particularly sensitive and therapeutically relevant method of quantifying protein destruction.
(§3) In three experiments, 84%, 77%, and 98%, of the immunologically identifiable interferon, based on the starting solution, were found in the trap solution (b). […] The proportion of particles less than 5.8 μm in size (“inhalable proportion”) was measured. […]

[4] = In vitro RESPIMAT nebulization, trap recovery of interferon omega by ELISA
From the text: as §1, §2, §3

[5] = Inhalable proportion of RESPIMAT spray mist in Andersen impactor; assay type: physicochemical; conditions: immunological measurements
From the text: as §1, §3
In this experiment, the reservoir (a) of the RESPIMAT® device was filled with 3.3 mg/mL of manganese superoxide dismutase (MnSOD) in phosphate-buffered saline (PBS). […] The precise amount nebulized was determined gravimetrically (measurements in three succeeding tests: 12.8, 13.7, and 14.3 mg). […] MnSOD was determined in the reservoir solution and in the solution caught in the trap, immunologically using an ELISA and enzymatically by the reduction in the quantity of superoxide after a xanthine/xanthine oxidase reaction. […]

[6] = test system: neopterin; test: In vivo test in dog: serum neopterin after interferon omega by RESPIMAT inhalation vs intravenous
Description: Interferon omega was administered by inhalation and intravenous route in separate experiments on the same dog. The blood levels of interferon were measured immunologically and biologically at different times. In addition, the neopterin level in the blood was measured. Neopterin is a marker for immune activation; it is released by macrophages after interferon stimulation [see Fuchs et al., “Neopterin, Biochemistry and Clinical Use as a Marker For Cellular Immune Reactions”, Int. Arch. Allergy Appl. Immunol. 101: 1-6 (1993)]. Measurement of the neopterin level serves to quantify interferon activity.
The administration of interferon to the dog was carried out under pentobarbital anesthetic after previous basic sedation. The animal was intubated and subjected to artificial ventilation (volume-controlled respiration: volume per minute 4 L/min, rate 10 breaths/min). A total of 20 puffs were delivered by the RESPIMAT® device. Each puff was given at the start of an inward breath. After the breathing in phase there were five seconds gap before breathing out. […] Interferon omega was measured in heparin plasma by immunological methods using an ELISA and by biological methods by the inhibition of the destruction of encephalo-myocarditis virus infected A549 cells. Serum neopterin was determined by immunology. […]

[7] = In vitro RESPIMAT nebulization, trap recovery of MnSOD by ELISA; conditions: 3.3 mg/mL MnSOD in PBS, one puff, 28 L/min, three tests
From the text: The effectiveness of a nebulizer can be tested using an in vitro system in which a protein solution is nebulized and the spray mist is caught in a so-called “trap” (see FIG. 1). The activity of the protein in the aerosol reservoir (a) is compared with its activity in the trapped liquid (b), e.g., by means of an immunoassay or using an assay for the biological effectiveness of the protein. This experiment makes it possible to evaluate the degree of destruction of the protein by the nebulizing process. A second parameter of the aerosol quality is the so-called inhalable proportion, which is defined here as the proportion of the mist droplets with a […] median aerodynamic diameter (MMAD) of less than 5.8 μm. The inhalable proportion can be measured using an “Andersen Impactor”. […] Blood samples arc taken at suitable time intervals and the protein level in the plasma is then measured by immunological or biological methods.
In this experiment, the reservoir (a) of the RESPIMAT® device was filled with 3.3 mg/mL of manganese superoxide dismutase (MnSOD) in phosphate-buffered saline (PBS). […] The precise amount nebulized was determined gravimetrically (measurements in three succeeding tests: 12.8, 13.7, and 14.3 mg). […] In three tests, 78%, 89%, and 83% of the immunologically identifiable MnSOD of the nebulized solution were measured in the trapped solution (b). […]

[8] = In vitro RESPIMAT nebulization, MnSOD enzymatic activity (reduction of superoxide after xanthine/xanthine oxidase reaction); assay type: biochemical; conditions: 3.3 mg/mL MnSOD in PBS
Description: In this experiment, the reservoir (a) of the RESPIMAT® device was filled with 3.3 mg/mL of manganese superoxide dismutase (MnSOD) in phosphate-buffered saline (PBS). The device was operated and a volume of about 13 μL (one puff) was nebulized in an air current of 28 L/min. The precise amount nebulized was determined gravimetrically (measurements in three succeeding tests: 12.8, 13.7, and 14.3 mg). The nebulized solution was caught in a trap (b). This trap contained 20 mL of PBS. In addition, 2 mL of 5% bovine serum albumin was added to stabilize proteins in the trap. MnSOD was determined in the reservoir solution and in the solution caught in the trap, immunologically using an ELISA and enzymatically by the reduction in the quantity of superoxide after a xanthine/xanthine oxidase reaction. In three tests, 78%, 89%, and 83% of the immunologically identifiable MnSOD of the nebulized solution were measured in the trapped solution (b). […] The inhalable proportion (immunological measurements) was 61%.

[9] = concentrated interferon omega solution 53 mg/mL, four tests

insulin
viscosity of the solution [1]: about 1020 ×10^−6 Pa·s
blood glucose level after administration of insulin by inhalation [2]: lowering of blood glucose level

interferon omega
biologically active interferon in the trapped solution ([3]; 5 mg/mL formulation with additional human serum albumin (0.5%)): 60% and 54% and 66%
recovery of the biologically identifiable interferon in the trapped solution ([3]; 5 mg/mL interferon omega in 50 mM trisodium citrate, 150 mM NaCl, pH 5.5, three experiments): 54% and 47% and 81%
recovery of the biologically identifiable interferon in the trapped solution [3, 9]: 95% and 98% and 61% and 83%
immunologically identifiable interferon found in the trap solution, based on the starting solution ([4]; 5 mg/mL formulation with additional human serum albumin (0.5%), three tests): 79% and 83%
immunologically identifiable interferon found in the trap solution, based on the starting solution ([4]; 5 mg/mL interferon omega in 50 mM trisodium citrate, 150 mM NaCl, pH 5.5, one puff, air current 28 l/min, ELISA, three experiments): 84% and 77% and 98%
immunologically identifiable interferon found in the trapped solution, based on the starting solution [4, 9]: 100% and 60% and 68% and 72%
inhalable proportion (particles less than 5.8 μm) ([5]; 5 mg/mL interferon omega solution, Andersen impactor, 28 l/min): 70%
inhalable proportion ([5]; interferon omega formulation with additional human serum albumin (0.5%)): 67%
neopterin levels after inhalation compared with intravenous administration of 0.32 mg of interferon ([6]; 20 puffs RESPIMAT, 5 mg/mL (about 1.28 mg) vs 0.32 mg i.v., FIG. 3): significantly higher and longer lasting levels
serum neopterin level after administration by inhalation ([6]; 20 puffs from RESPIMAT, 5 mg/mL solution (about 1.28 mg)): very high serum neopterin level

B1: manganese superoxide dismutase (protein, UniProt P04179 25-222, looked up)
Superoxide dismutase [Mn], …: KHSLPDLPYDYGALEPHINAQIMQLHHSKHHAAYVNNLNVTEEKYQEALAKGDVTAQIALQPALKFNGGGHINHSIFWTNLSPNGGGEPKGELLEAIKRDFGSFDKFKEKLTAASVGVQGSGWGWLGFNKERGHLQIAACPNQDPLQGTTGLIPLLGIDVWEHAYYLQYKNVRPDYLKAIWNVINWENVTERYMACKK
notes: 3.3 mg/mL of manganese superoxide dismutase (MnSOD) in phosphate-buffered saline
immunologically identifiable MnSOD of the nebulized solution measured in the trapped solution [7]: 78% and 89% and 83%
loss in enzymatic activity after nebulization [8]: no measurable loss
inhalable proportion ([5]; 3.3 mg/mL MnSOD in PBS): 61%
